In patent publication US20170143843A1 (Genentech, published 2017):

How the values were obtained:
[1] = target: T1, human factor D (human, UniProt P00746 26-253); experiment: SPR Biacore T200, Fab captured by anti-huFab, human fD injected, 25 C
T1 construct: also called fD
Description: Antibody Fab fragments were immobilized on a Series S CM5 sensor chip using the anti-huFab capture kit (GE healthcare Cat. #28-9583-25) following a protocol described by the manufacturer. Kinetics of binding were calculated from sensorgrams recorded for injection of 60 μL aliquots of solutions of human factor D varied in concentration from 0.39 nM to 25 nM in 2-fold increments. The flow rate was 30 μL/minute, the running buffer was HBS-P+, the temperature of analysis was 25° C., real-time reference cell subtraction was employed, and dissociation following factor D injection was followed for 10 minutes. After subtraction of the sensorgram observed for injection of running buffer, data were analyzed according to a 1:1 model using BiaEval software v4.1 (GE Healthcare) to extract the kinetics and affinity constants.

[2] = target: T1, human factor D; experiment: SPR total binding to fD over time; Fab 100 mg/mL in PBS, 37 C, 10 weeks (FIG. 2B)
[3] = target: T1, human factor D; experiment: SPR total binding to fD over time; Fab 10 mg/mL in pH 5.5 buffer (FIG. 2A), one month
[4] = target: T1, human factor D; experiment: SPR, captured Fab, fD injected

T1 sequence (P00746 26-253 limits assumed): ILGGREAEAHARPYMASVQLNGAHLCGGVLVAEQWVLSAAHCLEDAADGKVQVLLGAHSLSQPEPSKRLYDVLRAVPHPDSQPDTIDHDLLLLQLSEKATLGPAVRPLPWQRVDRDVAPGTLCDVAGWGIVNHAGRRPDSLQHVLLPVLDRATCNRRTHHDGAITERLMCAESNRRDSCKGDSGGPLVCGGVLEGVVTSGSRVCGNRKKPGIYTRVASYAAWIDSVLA

Row | Binder | Kd [1] | loss in binding [2] | loss in binding [3] | fold decrease in affinity against SIESD.N103S (AFD.v14) [4]
1 | AFD.v6 (TM; VL-D30E:D31S VH-D62E) (Fab, V domains shown, Fab variant of aFD.WT; also called TM (AFD.v6)) VH: EVQLVQSGPELKKPGASVKVSCKASGYTFTNYGMNWVRQAPGQGLEWMGWINTYTGETTYAEDFKGRFVFSLDTSVSTAYLQISSLKAEDTAVYYCEREGGVNNWGQGTLVTVSS VL: DIQVTQSPSSLSASVGDRVTITCITSTDIESDMNWYQQKPGKVPKLLISGGNTLRPGVPSRFSGSGSGTDFTLTISSLQPEDVATYYCLQSDSLPYTFGQGTKVEIKR | ≤ 0.01 nM | ~20% | ~40% | –
2 | AFD.v15 (SIESD.N103S.D92E; VL-D28S:D30E:D31S:D92E VH-D62E:N103S) (Fab, V domains shown, Fab variant of aFD.WT) VH: EVQLVQSGPELKKPGASVKVSCKASGYTFTNYGMNWVRQAPGQGLEWMGWINTYTGETTYAEDFKGRFVFSLDTSVSTAYLQISSLKAEDTAVYYCEREGGVSNWGQGTLVTVSS VL: DIQVTQSPSSLSASVGDRVTITCITSTSIESDMNWYQQKPGKVPKLLISGGNTLRPGVPSRFSGSGSGTDFTLTISSLQPEDVATYYCLQSESLPYTFGQGTKVEIKR | 0.102 nM | – | – | 4 fold
